Assay results as given in patent publication US12144864B2, “Tubulysins and protein-tubulysin conjugates” (Regeneron Pharmaceuticals, Inc., priority 2018, dated 2024).

How the values were obtained:
[1] = molecular target: T1, STEAP2 endogenously expressed on C4-2 cells (human, UniProt Q8NFT2 1-490); assay: cell-based or functional assay
T1 sequence (looked up): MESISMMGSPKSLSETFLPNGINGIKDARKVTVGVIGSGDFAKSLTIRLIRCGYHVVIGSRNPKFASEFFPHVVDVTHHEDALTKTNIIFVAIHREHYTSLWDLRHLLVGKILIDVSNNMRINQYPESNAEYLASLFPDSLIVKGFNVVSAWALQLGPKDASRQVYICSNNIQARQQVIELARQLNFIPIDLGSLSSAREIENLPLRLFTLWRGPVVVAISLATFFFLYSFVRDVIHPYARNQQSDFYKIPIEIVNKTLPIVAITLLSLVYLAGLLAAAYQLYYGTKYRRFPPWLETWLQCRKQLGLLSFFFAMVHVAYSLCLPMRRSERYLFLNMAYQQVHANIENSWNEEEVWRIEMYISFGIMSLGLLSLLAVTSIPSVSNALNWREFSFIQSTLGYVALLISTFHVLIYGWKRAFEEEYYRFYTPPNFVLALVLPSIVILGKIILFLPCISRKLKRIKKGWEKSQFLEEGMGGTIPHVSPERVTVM

[2] = tested on: STEAP2 positive C4-2 prostate cancer xenografts; assay: In vivo efficacy of anti-STEAP2 ADCs in C4-2 prostate cancer xenografts in SCID mice; set-up: species or system mouse; settings: single dose 2.5 mg/kg via tail vein; end of study
Method: To determine the in vivo efficacy of anti-STEAP2 antibodies conjugated to tubulysins, studies were performed in immunocompromised mice bearing STEAP2 positive C4-2 prostate cancer xenografts.
For the assay, 7.5×10^6 C4-2 cells (ATCC, Cat #CRL-3314), which endogenously express STEAP2, were suspended in Matrigel (BD Biosciences, Cat #354234) and implanted subcutaneously into the left flank of male CB17 SCID mice (Taconic, Hudson NY). Once tumors had reached an average volume of 220 mm^3 (around Day 15), mice were randomized into groups of 7 and given a single dose of either anti-STEAP2 conjugated antibodies (anti-STEAP2-LP3, anti-STEAP2-LP4, anti-STEAP2-MMAE), isotype control conjugated antibody, or vehicle at 2.5 mg/kg via tail vein injection. Tumors were measured with calipers twice a week until the average size of the vehicle group reached 1500 mm^3. Tumor size was calculated using the formula (length×width^2)/2 and the average tumor size+/−SEM was then calculated. Tumor growth inhibition was calculated according to the following formula: (1−((Tfinal−Tinitial)/(Cfinal−Cinitial)))*100, where treated group (T) and control group (C) represent the mean tumor mass on the day the vehicle group reached 1500 mm^3.

[3] = tested on: CTG-2441 prostate cancer PDX; assay: Efficacy of STEAP2-Tubulysin ADC in CTG-2441 PDX prostate cancer model in NOG mice; format: in vivo, mouse
Method: (§1) Prostate cancer Patient-Derived Xenograft (PDX) tumor fragments of either CTG-2440 or CTG-2441 were implanted subcutaneously into the flank of male NOG mice. Once the tumor volumes reached approximately 200 mm^3, mice were randomized into groups of eight and were treated according to the schedule shown in Table 16 below. Tumor growth was monitored for 60 days post-implantation.
(§2) The prostate cancer models were derived from the bone metastases of patients with metastatic castrate resistant prostate cancer (mCRPC). STEAP2 expression was confirmed by RNA sequencing data and RNA in situ hybridization.

[4] = tested on: CTG-2440 prostate cancer PDX; assay: Efficacy of STEAP2-Tubulysin ADC in CTG-2440 PDX prostate cancer model in NOG mice; format: in vivo, mouse
Method: as §1, §2

[5] = molecular target: T2, human full length PRLR (accession #NP_000940.1) expressed on HCT15/PRLR cells (human, UniProt P16471 25-622); assay: cell-based or functional assay
T2 sequence (looked up): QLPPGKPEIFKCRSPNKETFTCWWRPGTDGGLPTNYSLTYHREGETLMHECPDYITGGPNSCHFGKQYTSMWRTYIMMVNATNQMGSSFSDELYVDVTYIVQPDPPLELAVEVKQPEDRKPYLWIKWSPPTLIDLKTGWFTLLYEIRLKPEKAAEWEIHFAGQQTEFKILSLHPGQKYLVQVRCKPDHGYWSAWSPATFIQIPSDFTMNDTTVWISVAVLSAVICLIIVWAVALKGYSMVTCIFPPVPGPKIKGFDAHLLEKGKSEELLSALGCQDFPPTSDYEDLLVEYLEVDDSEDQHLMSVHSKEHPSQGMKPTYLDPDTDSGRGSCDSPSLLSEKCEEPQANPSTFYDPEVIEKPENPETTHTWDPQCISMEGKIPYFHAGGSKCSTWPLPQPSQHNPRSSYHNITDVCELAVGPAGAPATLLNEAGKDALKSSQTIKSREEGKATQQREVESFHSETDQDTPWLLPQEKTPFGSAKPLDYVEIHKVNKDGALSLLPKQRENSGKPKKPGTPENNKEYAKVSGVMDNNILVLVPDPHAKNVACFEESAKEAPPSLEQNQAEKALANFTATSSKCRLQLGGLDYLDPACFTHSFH

[6] = 1.82 mg/kg QW × 1, total payload dose 40 ug/kg
[7] = 1.82 mg/kg QW × 3, total payload dose 120 ug/kg
[8] = 3.64 mg/kg QW × 3, total payload dose 240 ug/kg
[9] = 1.86 mg/kg QW × 1, total payload dose 40 ug/kg
[10] = 1.86 mg/kg QW × 3, total payload dose 120 ug/kg
[11] = 3.72 mg/kg QW × 3, total payload dose 240 ug/kg

B1: Anti-STEAP2 N297Q Ab-LP3 (antibody, V domains shown)
VH: QVQLVESGGGVVQPGRSLRLSCVASGFTISSYGMNWVRQAPGKGLEWVAVISYDGGNKYSVDSVKGRFTISRDNSKNTLYLQMNSLRAEDSAVYYCARGRYFDLWGRGTLVTVSS
VL: DIQMTQSPSTLSASVGDRVTITCRASQSISSWLAWYQQKPGRAPNLLISKASSLKSGVPSRFSGSGSGTEFTLTVSSLQPDDFATYYCQQYYSYSYTFGQGTKLEIK
modifications: N297Q (EU numbering) in the heavy chain constant region; linker-payload LP3 (payload IVd) clicked to azido-PEG3-amine that transglutaminase put on heavy chain glutamines; DAR 3.8 (Table 7)
[1]
  % kill, C4-2 cells: 99%
  IC50 (nM), cytotoxicity in C4-2 cells (CellTiter-Glo): 0.097 nM

B2: Anti-STEAP2 N297Q Ab-LP4 (antibody, V domains shown)
VH: B1 VH
VL: B1 VL
modifications: N297Q (EU numbering) in the heavy chain constant region; linker-payload LP4 (payload Ve) clicked to azido-PEG3-amine that transglutaminase put on heavy chain glutamines; DAR 3.8 (Table 7)
[1]
  % kill, C4-2 cells: 99%
  IC50 (nM), cytotoxicity in C4-2 cells (CellTiter-Glo): 0.15 nM

B3: Anti-STEAP2-LP3 (conjugate)
VH: B1 VH
VL: B1 VL
[2]
  Average Final Tumor size mm^3 (mean ± SEM): 115 ± 6 mm^3
  Average Tumor Growth Inhibition (%): 108%

B4: Anti-STEAP2-MMAE (antibody, V domains shown)
VH: B1 VH
VL: B1 VL
modifications: conjugated to MMAE (payload of LP8, reference linker-payload); site of conjugation and DAR not stated
[2]
  Average Final Tumor size mm^3 (mean ± SEM): 475 ± 118 mm^3
  Average Tumor Growth Inhibition (%): 81%
[1]
  % kill, C4-2 cells: 99%
  IC50 (nM), cytotoxicity in C4-2 cells (CellTiter-Glo): 0.53 nM

B5: Anti-STEAP2-LP4 (conjugate)
VH: B1 VH
VL: B1 VL
[2]
  Average Final Tumor size mm^3 (mean ± SEM): 258 ± 60 mm^3
  Average Tumor Growth Inhibition (%): 97%
[3]; [6]
  Final tumor volume (mm^3) at termination (mean ± SD): 171.8 ± 176.1 mm^3
  Tumor growth (mm^3) from start of treatment (mean ± SD): −36.8 ± 167.0 mm^3
[3]; [7]
  Final tumor volume (mm^3) at termination (mean ± SD): 46.0 ± 15.1 mm^3
  Tumor growth (mm^3) from start of treatment (mean ± SD): −164.0 ± 57.3 mm^3
[3]; [8]
  Final tumor volume (mm^3) at termination (mean ± SD): 33.5 ± 13.6 mm^3
  Tumor growth (mm^3) from start of treatment (mean ± SD): −179.1 ± 51.3 mm^3
[4]; [9]
  Final tumor volume (mm^3) at termination (mean ± SD): 179.9 ± 68.5 mm^3
  Tumor growth (mm^3) from start of treatment (mean ± SD): −20.0 ± 65.1 mm^3
[4]; [10]
  Final tumor volume (mm^3) at termination (mean ± SD): 73.5 ± 53.4 mm^3
  Tumor growth (mm^3) from start of treatment (mean ± SD): −129.3 ± 67.7 mm^3
[4]; [11]
  Final tumor volume (mm^3) at termination (mean ± SD): 6.0 ± 11.4 mm^3
  Tumor growth (mm^3) from start of treatment (mean ± SD): −196.5 ± 37.1 mm^3

B6: Anti-PRLR N297Q Ab-LP3 (antibody, V domains shown)
VH: QVQLVESGGGVVQPGRSLRLSCGASGFTFRNYGMQWVRQGPGKGLEWVTLISFDGNDKYYADSVKGRFTISRDNSKNTLFLQMNSLRTEDTAVYYCARGGDFDYWGQGTLVTVSS
VL: DIQMTQSPSSLSASVGDRVTITCRASQDIRKDLGWYQQKPGKAPKRLIYAASSLHSGVPSRFSGSGSGTEFTLTISSLQPEDFATYYCLQHNSYPMYTFGQGTKLEIK
modifications: N297Q (EU numbering) in the heavy chain constant region; linker-payload LP3 (payload IVd) clicked to azido-PEG3-amine that transglutaminase put on heavy chain glutamines; DAR 3.9 (Table 7)
[5]
  IC50 (nM) on HCT15/PRLR w/ Verapamil (CellTiter-Glo cytotoxicity): 0.309 nM
  IC50 (nM) on HCT15/PRLR w/o Verapamil (CellTiter-Glo cytotoxicity): 0.525 nM

B7: Anti-PRLR N297Q Ab-LP4 (antibody, V domains shown)
VH: B6 VH
VL: B6 VL
modifications: N297Q (EU numbering) in the heavy chain constant region; linker-payload LP4 (payload Ve) clicked to azido-PEG3-amine that transglutaminase put on heavy chain glutamines; DAR 3.9 (Table 7)
[5]
  IC50 (nM) on HCT15/PRLR w/ Verapamil (CellTiter-Glo cytotoxicity): 0.196 nM
  IC50 (nM) on HCT15/PRLR w/o Verapamil (CellTiter-Glo cytotoxicity): 3.31 nM
